Laboratory results: patent publication US20040110684A1 (UNIVERSITE CATHOLIQUE DE LOUVAIN, published 2004)

B3: endothelial nitric oxide synthase (eNOS), endogenous, human umbilical vein endothelial cells (HUVECs) (enzyme)
chain: GNLKSVAQEPGPPCGLGLGLGLGLCGKQGPATPAPEPSRAPASLLPPAPEHSPPSSPLTQPPEGPKFPRVKNWEVGSITYDTLSAQAQQDGPCTPRRCLGSLVFPRKLQGRPSPGPPAPEQLLSQARDFINQYYSSIKRSGSQAHEQRLQEVEAEVAATGTYQLRESELVFGAKQAWRNAPRCVGRIQWGKLQVFDARDCRSAQEMFTYICNHIKYATNRGNLRSAITVFPQRCPGRGDFRIWNSQLVRYAGYRQQDGSVRGDPANVEITELCIQHGWTPGNGRFDVLPLLLQAPDDPPELFLLPPELVLEVPLEHPTLEWFAALGLRWYALPAVSNMLLEIGGLEFPAAPFSGWYMSTEIGTRNLCDPHRYNILEDVAVCMDLDTRTTSSLWKDKAAVEINVAVLHSYQLAKVTIVDHHAATASFMKHLENEQKARGGCPADWAWIVPPISGSLTPVFHQEMVNYFLSPAFRYQPDPWKGSAAKGTGITRKKTFKEVANAVKISASLMGTVMAKRVKATILYGSETGRAQSYAQQLGRLFRKAFDPRVLCMDEYDVVSLEHETLVLVVTSTFGNGDPPENGESFAAALMEMSGPYNSSPRPEQHKSYKIRFNSISCSDPLVSSWRRKRKESSNTDSAGALGTLRFCVFGLGSRAYPHFCAFARAVDTRLEELGGERLLQLGQGDELCGQEEAFRGWAQAAFQAACETFCVGEDAKAAARDIFSPKRSWKRQRYRLSAQAEGLQLLPGLIHVHRRKMFQATIRSVENLQSSKSTRATILVRLDTGGQEGLQYQPGDHIGVCPPNRPGLVEALLSRVEDPPAPTEPVAVEQLEKGSPGGPPPGWVRDPRLPPCTLRQALTFFLDITSPPSPQLLRLLSTLAEEPREQQELEALSQDPRRYEEWKWFRCPTLLEVLEQFPSVALPAPLLLTQLPLLQPRYYSVSSAPSTHPGEIHLTVAVLAYRTQDGLGPLHYGVCSTWLSQLKPGDPVPCFIRGAPSFRLPPDPSLPCILVGPGTGIAPFRGFWQERLHDIESKGLQPTPMTLVFGCRCSQLDHLYRDEVQNAQQRGVFGRVLTAFSREPDNPKTYVQDILRTELAAEVHRVLCLERGHMFVCGDVTMATNVLQTVQRILATEGDMELDEAGDVIGVLRDQQRYHEDIFGLTLRTQEVTSRIRTQSFSLQERQLRGAVPWAFDPPGSDTNSP

Assays:
[1] = target: T1, endothelial nitric oxide synthase (eNOS), endogenous, mouse cardiac microvascular endothelial cells (CMECs) (mouse, UniProt P70313 2-1202); experiment: co-IP with eNOS or caveolin antibodies, immunoblot, CMEC lysates
T1 construct: Endogenous protein in a cell lysate, detected by co-immunoprecipitation and immunoblot; also called endothelial NO synthase
T1 sequence (looked up): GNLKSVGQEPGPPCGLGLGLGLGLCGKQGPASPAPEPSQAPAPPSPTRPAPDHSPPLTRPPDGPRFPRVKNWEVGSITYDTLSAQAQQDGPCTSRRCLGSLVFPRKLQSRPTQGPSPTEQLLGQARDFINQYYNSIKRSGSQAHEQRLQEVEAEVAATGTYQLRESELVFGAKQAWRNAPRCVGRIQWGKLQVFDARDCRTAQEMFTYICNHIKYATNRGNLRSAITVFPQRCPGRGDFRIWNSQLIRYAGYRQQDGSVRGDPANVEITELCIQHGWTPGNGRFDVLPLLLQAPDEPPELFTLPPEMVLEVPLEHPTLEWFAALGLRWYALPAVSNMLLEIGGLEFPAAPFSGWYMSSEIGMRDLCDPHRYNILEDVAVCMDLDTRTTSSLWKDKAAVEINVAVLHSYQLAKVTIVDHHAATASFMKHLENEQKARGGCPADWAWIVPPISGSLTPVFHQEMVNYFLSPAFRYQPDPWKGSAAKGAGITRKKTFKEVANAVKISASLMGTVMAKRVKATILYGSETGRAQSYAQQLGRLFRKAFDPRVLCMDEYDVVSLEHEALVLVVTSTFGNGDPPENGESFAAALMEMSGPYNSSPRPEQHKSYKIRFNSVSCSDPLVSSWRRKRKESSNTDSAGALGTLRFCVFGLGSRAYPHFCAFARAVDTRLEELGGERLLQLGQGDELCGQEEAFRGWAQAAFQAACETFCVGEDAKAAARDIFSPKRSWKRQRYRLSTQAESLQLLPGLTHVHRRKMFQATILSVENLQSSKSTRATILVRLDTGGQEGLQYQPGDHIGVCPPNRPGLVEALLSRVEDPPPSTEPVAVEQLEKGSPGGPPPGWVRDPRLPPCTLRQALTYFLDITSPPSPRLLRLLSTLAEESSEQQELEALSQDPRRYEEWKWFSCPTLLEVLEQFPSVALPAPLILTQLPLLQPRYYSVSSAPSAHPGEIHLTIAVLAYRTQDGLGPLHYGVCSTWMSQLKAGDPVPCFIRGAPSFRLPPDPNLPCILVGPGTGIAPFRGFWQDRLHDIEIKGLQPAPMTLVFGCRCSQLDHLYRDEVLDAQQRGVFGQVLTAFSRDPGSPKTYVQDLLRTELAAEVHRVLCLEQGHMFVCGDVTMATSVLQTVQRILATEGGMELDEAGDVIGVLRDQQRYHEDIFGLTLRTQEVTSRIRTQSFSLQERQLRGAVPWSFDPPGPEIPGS

[2] = target: B3; experiment: caveolin IP, eNOS immunoblot, HUVEC lysates
[3] = target: calmodulin (CaM), endogenous, human umbilical vein endothelial cells (HUVECs) (human, UniProt P0DP23 2-149); experiment: eNOS IP, CaM immunoblot, VEGF-treated HUVEC lysates

B1: caveolin, endogenous, mouse cardiac microvascular endothelial cells (CMECs) (other, UniProt P49817 2-178, looked up)
chain: SGGKYVDSEGHLYTVPIREQGNIYKPNNKAMADEVTEKQVYDAHTKEIDLVNRDPKHLNDDVVKIDFEDVIAEPEGTHSFDGIWKASFTTFTVTKYWFYRLLSTIFGIPMALIWGIYFAILSFLHIWAVVPCIKSFLIEIQCISRVYSIYVHTFCDPLFEAIGKIFSNIRISTQKEI
notes: also called caveolin-1
**Q.** Does B1 bind [1]?
**A.** binds

B2: caveolin, endogenous, human umbilical vein endothelial cells (HUVECs) (other, UniProt Q03135 2-178, looked up)
chain: SGGKYVDSEGHLYTVPIREQGNIYKPNNKAMADELSEKQVYDAHTKEIDLVNRDPKHLNDDVVKIDFEDVIAEPEGTHSFDGIWKASFTTFTVTKYWFYRLLSALFGIPMALIWGIYFAILSFLHIWAVVPCIKSFLIEIQCISRVYSIYVHTVCDPLFEAVGKIFSNVRINLQKEI
notes: also called caveolin-1
**Q.** Does B2 bind [2]?
**A.** binds

**Q.** Does B3 bind [3]?
**A.** binds
